Test results published in patent WO2011147762A2.

Key:
[1] = molecular target: ED-B fibronectin antigen protein (recombinant), bound to CNBr activated sepharose 4B (UniProt P02751); assay: ED-B sepharose column, % of total radioactivity bound; Study A; inositol 10 mg/mL; day 0
[2] = molecular target: ED-B fibronectin antigen protein (recombinant), bound to CNBr activated sepharose 4B (UniProt P02751); assay: ED-B sepharose column, % of total radioactivity bound; Study A; sodium thiosulfate 10 mg/mL; day 7
[3] = molecular target: ED-B fibronectin antigen protein (recombinant), bound to CNBr activated sepharose 4B (UniProt P02751); assay: ED-B sepharose column, % of total radioactivity bound; Study A; methionine 25 mg/mL; day 7
[4] = molecular target: ED-B fibronectin antigen protein (recombinant), bound to CNBr activated sepharose 4B (UniProt P02751); assay: ED-B sepharose column, % of total radioactivity bound; Study B3; no-excipient control (PBS); day 0
[5] = molecular target: ED-B fibronectin antigen protein (recombinant), bound to CNBr activated sepharose 4B (UniProt P02751); assay: ED-B sepharose column, % of total radioactivity bound; Study A; methionine 25 mg/mL; day 3
[6] = molecular target: ED-B fibronectin antigen protein (recombinant), bound to CNBr activated sepharose 4B (UniProt P02751); assay: ED-B sepharose column, % of total radioactivity bound; Study A; inositol 50 mg/mL; day 1
[7] = molecular target: ED-B fibronectin antigen protein (recombinant), bound to CNBr activated sepharose 4B (UniProt P02751); assay: ED-B sepharose column, % of total radioactivity bound; Study A; maltose 25 mg/mL; day 5
[8] = molecular target: ED-B fibronectin antigen protein (recombinant), bound to CNBr activated sepharose 4B (UniProt P02751); assay: ED-B sepharose column, % of total radioactivity bound; Study A; maltose 25 mg/mL; day 0
[9] = molecular target: ED-B fibronectin antigen protein (recombinant), bound to CNBr activated sepharose 4B (UniProt P02751); assay: ED-B sepharose column, % of total radioactivity bound; Study B3; thioglycerol 10 mg/mL; day 3
[10] = molecular target: ED-B fibronectin antigen protein (recombinant), bound to CNBr activated sepharose 4B (UniProt P02751); assay: ED-B sepharose column, % of total radioactivity bound; Study A; maltose 50 mg/mL; day 7
[11] = molecular target: ED-B fibronectin antigen protein (recombinant), bound to CNBr activated sepharose 4B (UniProt P02751); assay: ED-B sepharose column, % of total radioactivity bound; Study B3; human serum albumin 10 mg/mL; day 5
[12] = molecular target: ED-B fibronectin antigen protein (recombinant), bound to CNBr activated sepharose 4B (UniProt P02751); assay: ED-B sepharose column, % of total radioactivity bound; Study A; maltose 10 mg/mL; day 1
[13] = molecular target: ED-B fibronectin antigen protein (recombinant), bound to CNBr activated sepharose 4B (UniProt P02751); assay: ED-B sepharose column, % of total radioactivity bound; Study A; inositol 50 mg/mL; day 0
[14] = molecular target: ED-B fibronectin antigen protein (recombinant), bound to CNBr activated sepharose 4B (UniProt P02751); assay: ED-B sepharose column, % of total radioactivity bound; Study A; methionine 5 mg/mL; day 3
[15] = molecular target: ED-B fibronectin antigen protein (recombinant), bound to CNBr activated sepharose 4B (UniProt P02751); assay: ED-B sepharose column, % of total radioactivity bound; Study B3; ascorbic acid 25 mg/mL; day 7
[16] = molecular target: ED-B fibronectin antigen protein (recombinant), bound to CNBr activated sepharose 4B (UniProt P02751); assay: ED-B sepharose column, % of total radioactivity bound; Study A; inositol 50 mg/mL; day 5
[17] = molecular target: ED-B fibronectin antigen protein (recombinant), bound to CNBr activated sepharose 4B (UniProt P02751); assay: ED-B sepharose column, % of total radioactivity bound; Study B3; thioglycerol 10 mg/mL; day 7
[18] = molecular target: ED-B fibronectin antigen protein (recombinant), bound to CNBr activated sepharose 4B (UniProt P02751); assay: ED-B sepharose column, % of total radioactivity bound; Study B3; ascorbic acid 25 mg/mL; day 3
[19] = molecular target: ED-B fibronectin antigen protein (recombinant), bound to CNBr activated sepharose 4B (UniProt P02751); assay: ED-B sepharose column, % of total radioactivity bound; Study A; maltose 25 mg/mL; day 3
[20] = molecular target: ED-B fibronectin antigen protein (recombinant), bound to CNBr activated sepharose 4B (UniProt P02751); assay: ED-B sepharose column, % of total radioactivity bound; Study A; inositol 50 mg/mL; day 7
[21] = molecular target: ED-B fibronectin antigen protein (recombinant), bound to CNBr activated sepharose 4B (UniProt P02751); assay: ED-B sepharose column, % of total radioactivity bound; Study A; maltose 10 mg/mL; day 3
[22] = molecular target: ED-B fibronectin antigen protein (recombinant), bound to CNBr activated sepharose 4B (UniProt P02751); assay: ED-B sepharose column, % of total radioactivity bound; Study B3; human serum albumin 10 mg/mL; day 1
[23] = molecular target: ED-B fibronectin antigen protein (recombinant), bound to CNBr activated sepharose 4B (UniProt P02751); assay: ED-B sepharose column, % of total radioactivity bound; Study A; inositol 5 mg/mL; day 3
[24] = molecular target: ED-B fibronectin antigen protein (recombinant), bound to CNBr activated sepharose 4B (UniProt P02751); assay: ED-B sepharose column, % of total radioactivity bound; Study A; maltose 5 mg/mL; day 1
[25] = molecular target: ED-B fibronectin antigen protein (recombinant), bound to CNBr activated sepharose 4B (UniProt P02751); assay: ED-B sepharose column, % of total radioactivity bound; Study A; sodium thiosulfate 10 mg/mL; day 1
[26] = molecular target: ED-B fibronectin antigen protein (recombinant), bound to CNBr activated sepharose 4B (UniProt P02751); assay: ED-B sepharose column, % of total radioactivity bound; Study B3; no-excipient control (PBS); day 3
[27] = molecular target: ED-B fibronectin antigen protein (recombinant), bound to CNBr activated sepharose 4B (UniProt P02751); assay: ED-B sepharose column, % of total radioactivity bound; Study B3; human serum albumin 10 mg/mL; day 3
[28] = molecular target: ED-B fibronectin antigen protein (recombinant), bound to CNBr activated sepharose 4B (UniProt P02751); assay: ED-B sepharose column, % of total radioactivity bound; Study A; sodium thiosulfate 25 mg/mL; day 3

Chain of 131I L19-SIP (radioiodinated L19 SIP homodimer) (chain): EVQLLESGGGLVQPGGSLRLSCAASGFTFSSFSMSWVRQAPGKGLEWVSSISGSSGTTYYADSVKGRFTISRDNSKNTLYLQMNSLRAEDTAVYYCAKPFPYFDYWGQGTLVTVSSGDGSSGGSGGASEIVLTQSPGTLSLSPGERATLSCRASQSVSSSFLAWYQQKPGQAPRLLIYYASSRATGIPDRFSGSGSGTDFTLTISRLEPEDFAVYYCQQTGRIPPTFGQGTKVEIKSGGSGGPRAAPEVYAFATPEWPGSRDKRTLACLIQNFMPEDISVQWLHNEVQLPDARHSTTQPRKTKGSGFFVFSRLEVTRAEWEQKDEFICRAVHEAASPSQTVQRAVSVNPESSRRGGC
Chain of 131I L19-SIP (radioiodinated L19 SIP homodimer) (chain): as above
Chain of UniProt P02751 (P02751 1266-1356 limits assumed): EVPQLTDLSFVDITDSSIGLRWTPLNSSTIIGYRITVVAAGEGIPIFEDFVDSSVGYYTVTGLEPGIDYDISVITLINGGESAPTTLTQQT

131I L19-SIP (radioiodinated L19 SIP homodimer)
Immunoreactivity (%) [1]: 93.4%
Immunoreactivity (%) [2]: 78%
Immunoreactivity (%) [3]: 58.9%
Immunoreactivity (IR) (%) [4]: 74.6%
Immunoreactivity (%) [5]: 79.6%
Immunoreactivity (%) [6]: 89.3%
Immunoreactivity (%) [7]: 57.7%
Immunoreactivity (%) [8]: 93.6%
Immunoreactivity (IR) (%) [9]: 59.5%
Immunoreactivity (%) [10]: 50.7%
Immunoreactivity (IR) (%) [11]: 53%
Immunoreactivity (%) [12]: 85.4%
Immunoreactivity (%) [13]: 92.3%
Immunoreactivity (%) [14]: 72.9%
Immunoreactivity (IR) (%) [15]: 55.3%
Immunoreactivity (%) [16]: 63.7%
Immunoreactivity (IR) (%) [17]: 47.1%
Immunoreactivity (IR) (%) [18]: 78.7%
Immunoreactivity (%) [19]: 66%
Immunoreactivity (%) [20]: 61.9%
Immunoreactivity (%) [21]: 65.2%
Immunoreactivity (IR) (%) [22]: 78%
Immunoreactivity (%) [23]: 64.6%
Immunoreactivity (%) [24]: 84.4%
Immunoreactivity (%) [25]: 94.7%
Immunoreactivity (IR) (%) [26]: 68.3%
Immunoreactivity (IR) (%) [27]: 60.6%
Immunoreactivity (%) [28]: 92.3%
